Experiments:
Settings in all cases: both partners purified
[1] = biological target: LC3B H27Y mutant (ITC sample) (human, UniProt Q9GZQ8 1-120, H27Y); assay: ITC; PCM1 LIR peptide 0.4 mM titrated into 0.025 mM LC3 or GABARAP protein in 21 steps; 25 °C; 50 mM Tris-HCl pH 7.4, 100 mM NaCl; one-site binding model
[2] = biological target: T1, GABARAP Y25H mutant (ITC sample) (human, UniProt O95166 1-117, Y25H); assay: as above
T1 construct: GABARAP, human ATG8 protein, with Y25H

[3] = biological target: T2, GABARAP wild type (ITC sample) (human, UniProt O95166 1-117); assay: as above
T2 construct: GABARAP, human ATG8 protein; also called GABARAP-wt; GABARAP WT
T2 sequence (O95166 whole entry): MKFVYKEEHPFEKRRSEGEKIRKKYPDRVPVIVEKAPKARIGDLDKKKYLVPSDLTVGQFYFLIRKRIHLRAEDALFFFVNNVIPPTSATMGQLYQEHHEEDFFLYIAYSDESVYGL

[4] = biological target: LC3B wild type (ITC sample) (human, UniProt Q9GZQ8 1-120); assay: as above
[5] = biological target: T3, GABARAPL2 wild type (ITC sample) (human, UniProt P60520 1-117); assay: as above
T3 construct: GABARAPL2, human ATG8 protein; also called GABARAPL2 WT
T3 sequence (P60520 whole entry): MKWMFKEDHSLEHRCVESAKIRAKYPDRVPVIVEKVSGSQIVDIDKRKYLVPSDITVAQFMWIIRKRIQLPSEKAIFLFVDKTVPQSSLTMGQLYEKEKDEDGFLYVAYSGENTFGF

GABARAP (ITC sample) = biological target: T4, GABARAP (ITC sample) (human, UniProt O95166 1-117); assay: ITC; 0.4 mM PCM1 LIR peptide titrated into 0.025 mM LC3 and GABARAP proteins in 21 steps, 25 °C, 50 mM Tris-HCl pH 7.4, 100 mM NaCl, one-site binding model
T4 construct: GABARAP, human, purified protein for ITC
T4 sequence (O95166 whole entry): as the sequence (O95166 whole entry) above

LC3B H27Y (ITC sample) = LC3B H27Y (ITC sample) (human, UniProt Q9GZQ8 1-120, H27 in LC3B to Y); assay: as above
LC3B (ITC sample) = LC3B (ITC sample) (human, UniProt Q9GZQ8 1-120); assay: as above
GABARAPL2 (ITC sample) = biological target: T5, GABARAPL2 (ITC sample) (human, UniProt P60520 1-117); assay: as above
T5 construct: GABARAPL2, human, purified protein for ITC
T5 sequence (P60520 whole entry): as the sequence (P60520 whole entry) above

[6] = biological target: T6, GABARAP Y25H (ITC sample) (human, UniProt O95166 1-117, Y25 in GABARAP to H); assay: as above
T6 construct: GABARAP, human, with Y25H, purified protein for ITC; also called mutation of invariant Y25 in GABARAP to H
T6 sequence (O95166 whole entry Y25H): as the sequence (O95166 whole entry) above, with Y25H counted along it

T1 sequence (O95166 whole entry Y25H): as the sequence (O95166 whole entry) above, with Y25H counted along it

B1: Human PCM1 LIR-contained peptide (residues 1958-1976) (peptide)
peptide: SDEEDFVKVEDLPLKLTIY
notes: pericentriolar material 1 (PCM1), human, residues 1958-1976; core LIR FVKV; also called PCM1 LIR peptide; PCM LIR peptide; source: synthetic peptide, bought: GenScript Inc
[1]
  Ka: 40200 M⁻¹
  Kd: 25 µM
  stoichiometry N: 1
[2]
  Ka: 17900 M⁻¹
  Kd: 56 µM
  stoichiometry N: 1
[3]
  Ka: 157000 M⁻¹
  stoichiometry N: 0.94 ± 0.04
[4]
  Ka: 13200 M⁻¹
  stoichiometry N: 1
[5]
  Ka: 311000 M⁻¹
  stoichiometry N: 0.98 ± 0.02

B2: Human PCM1 LIR-contained peptide (peptide)
peptide: SDEEDFVKVEDLPLKLTIY
notes: PCM1, human, residues 1958-1976 with the core LIR FVKV; also called PCM1 LIR peptide; PCM LIR peptide; source: synthetic peptide, bought: GenScript Inc
GABARAP (ITC sample)
  Kd: 6.4 µM
LC3B H27Y (ITC sample)
  binding result: binds
LC3B (ITC sample)
  Kd: 76 µM
GABARAPL2 (ITC sample)
  Kd: 3.2 µM
[6]
  binding result: binds

— paper PMC6744468, “Selective autophagy maintains centrosome integrity and accurate mitosis by turnover of centriolar satellites” (Nature Communications, 2019)
